From patent US20230416361A1 (MIROBIO, published 2023)
Changes are numbered by the printed parent chain. Names and notes keep the numbering of the source.

T1: monomeric soluble human CD200R extracellular domain (human, UniProt Q8TD46 29-265)
T1 construct: extracellular domain; also called hCD200R; monomeric CD200R protein
T1 sequence (looked up): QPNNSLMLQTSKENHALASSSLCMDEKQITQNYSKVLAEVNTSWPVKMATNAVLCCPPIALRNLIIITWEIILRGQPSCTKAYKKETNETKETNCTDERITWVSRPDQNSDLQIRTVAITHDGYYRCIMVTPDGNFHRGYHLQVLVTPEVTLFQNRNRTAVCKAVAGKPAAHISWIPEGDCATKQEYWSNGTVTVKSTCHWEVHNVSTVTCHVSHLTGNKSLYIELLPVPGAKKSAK

T2: extracellular domain of cyno CD200R (SinoBiological 11232-C08H, Met1-Leu267) (cynomolgus, UniProt G7NZT0 25-268)
T2 construct: range 1-267; Bought protein
T2 sequence: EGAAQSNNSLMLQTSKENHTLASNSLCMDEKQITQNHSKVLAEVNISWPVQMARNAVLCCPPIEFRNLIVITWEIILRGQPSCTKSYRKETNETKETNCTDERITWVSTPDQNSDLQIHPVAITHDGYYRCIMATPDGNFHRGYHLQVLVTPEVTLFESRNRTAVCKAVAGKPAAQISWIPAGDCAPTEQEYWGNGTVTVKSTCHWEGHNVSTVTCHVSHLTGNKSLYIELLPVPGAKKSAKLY

T3: soluble cynomolgus macaque CD200R1 extracellular domain (cynomolgus macaque, UniProt G7NZT0 29-266)
T3 construct: extracellular domain; also called Cynomolgus CD200R
T3 sequence: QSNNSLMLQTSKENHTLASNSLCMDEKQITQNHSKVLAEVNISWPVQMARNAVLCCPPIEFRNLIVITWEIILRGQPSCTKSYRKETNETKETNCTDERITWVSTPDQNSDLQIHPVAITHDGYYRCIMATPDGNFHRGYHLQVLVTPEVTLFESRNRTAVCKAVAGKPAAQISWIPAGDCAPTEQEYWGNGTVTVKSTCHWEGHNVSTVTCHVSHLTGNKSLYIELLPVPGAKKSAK

B1: Antibody I-4P (antibody, human IgG4 S228P, kappa, V domains shown)
VH: QVQLVQSGAEVKKPGASVKVSCKASGFSFSSGYYMAWVRQAPGQGLEWMGLIGVGSGSLWYAQKFQGRVTMTRDTSTSTVYMELSSLRSEDTAVYYCARHFALSDPFNLWGQGTLVTVSS
VL: EIVLTQSPDFQSVTPKEKVTITCQASESIDSYLLWYQQKPDQSPKLLIKQASTLASGVPSRFSGSGSGTDFTLTINSLEAEDAATYYCQNYYDISSNDFGGGTKVEIKR
notes: also called AbI-4P; J-4P
B2: hu2131_v8 (antibody, human IgG1, V domains shown)
VH: QVQLVQSGAEVKKPGASVKLSCKASGHTFTSYWMHWVKQAPGQGLEWIGNIYPGSGSINYDEKFQGRATLTVDTSTRTAYMELSSLRSEDTAVYYCLTMTGTSWGRGTLVTVSS
VL: DVQMTQSPSSLSVSVGDRVTITCQASQGTPINLHWFQQKPGKAPKLLISGASNLEDGVPSRFSGSRYGTDFTFTISSLQPEDIATYFCLQFTYIPWTFGQGTKLEIK
notes: Expressed as human IgG1 with P238D Fc mutation
B3: hu2131_v3 (antibody, human IgG1, V domains shown)
VH: B2 VH with A9S, V11L, T91S
VL: B2 VL
notes: as for B2
B4: hu2131_v12 (antibody, human IgG1, V domains shown)
VH: B2 VH with L20V, K38R, A68V, L70M, R77S
VL: B2 VL with I21M, D70A, F73L
notes: as for B2
B5: hu2131_v7 (antibody, human IgG1, V domains shown)
VH: B2 VH
VL: B2 VL with I21M, D70A, F73L
notes: as for B2
B6: hu2131_v9 (antibody, human IgG1, V domains shown)
VH: B2 VH
VL: B2 VL with V2I, R66G, Y67S, F87Y
notes: as for B2
B7: hu2131_v17 (antibody, human IgG1, V domains shown)
VH: B2 VH with L20V, K38R, I48M, A68V, L70M, V72A, R77S, A79V
VL: B2 VL with I21M, D70A, F73L
notes: as for B2
B8: hu2131_v11 (antibody, human IgG1, V domains shown)
VH: B2 VH with L20V, K38R, A68V, L70M, R77S
VL: B2 VL with I21M, D70A, F73L, P80D
notes: as for B2
B9: hu2131_v5 (antibody, human IgG1, V domains shown)
VH: B2 VH with A9S, V11L, T91S
VL: B2 VL with V2I, R66G, Y67S, D70E, I83A, F87Y
notes: as for B2
B10: hu2131_v14 (antibody, human IgG1, V domains shown)
VH: B2 VH with L20V, K38R, A68V, L70M, R77S
VL: B2 VL with V2I, R66G, Y67S, F87Y
notes: as for B2
B11: hu2131_v4 (antibody, human IgG1, V domains shown)
VH: B2 VH with A9S, V11L, T91S
VL: B2 VL with V2I, R66G, Y67S, F87Y
notes: as for B2
B12: hu2131_v19 (antibody, human IgG1, V domains shown)
VH: B2 VH with L20V, K38R, I48M, A68V, L70M, V72A, R77S, A79V
VL: B2 VL with V2I, R66G, Y67S, F87Y
notes: as for B2
B13: hu2131_v6 (antibody, human IgG1, V domains shown)
VH: B2 VH
VL: B2 VL with I21M, D70A, F73L, P80D
notes: as for B2
B14: hu2131_v16 (antibody, human IgG1, V domains shown)
VH: B2 VH with L20V, K38R, I48M, A68V, L70M, V72A, R77S, A79V
VL: B2 VL with I21M, D70A, F73L, P80D
notes: as for B2
B15: hu2131_v2 (antibody, human IgG1, V domains shown)
VH: B2 VH with A9S, V11L, T91S
VL: B2 VL with I21M, D70A, F73L
notes: as for B2
B16: hu2131_v13 (antibody, human IgG1, V domains shown)
VH: B2 VH with L20V, K38R, A68V, L70M, R77S
VL: B2 VL
notes: as for B2
B17: hu2131_v1 (antibody, human IgG1, V domains shown)
VH: B2 VH with A9S, V11L, T91S
VL: B2 VL with I21M, D70A, F73L, P80D
notes: as for B2
B18: hu2131_v18 (antibody, human IgG1, V domains shown)
VH: B2 VH with L20V, K38R, I48M, A68V, L70M, V72A, R77S, A79V
VL: B2 VL
notes: as for B2
B19: hu2131_v10 (antibody, human IgG1, V domains shown)
VH: B2 VH
VL: B2 VL with V2I, R66G, Y67S, D70E, I83A, F87Y
notes: as for B2
B20: hu2131_v15 (antibody, human IgG1, V domains shown)
VH: B2 VH with L20V, K38R, A68V, L70M, R77S
VL: B2 VL with V2I, R66G, Y67S, D70E, I83A, F87Y
notes: as for B2
B21: Antibody hu2131_Q1E hIgG1k P238D (antibody)
heavy: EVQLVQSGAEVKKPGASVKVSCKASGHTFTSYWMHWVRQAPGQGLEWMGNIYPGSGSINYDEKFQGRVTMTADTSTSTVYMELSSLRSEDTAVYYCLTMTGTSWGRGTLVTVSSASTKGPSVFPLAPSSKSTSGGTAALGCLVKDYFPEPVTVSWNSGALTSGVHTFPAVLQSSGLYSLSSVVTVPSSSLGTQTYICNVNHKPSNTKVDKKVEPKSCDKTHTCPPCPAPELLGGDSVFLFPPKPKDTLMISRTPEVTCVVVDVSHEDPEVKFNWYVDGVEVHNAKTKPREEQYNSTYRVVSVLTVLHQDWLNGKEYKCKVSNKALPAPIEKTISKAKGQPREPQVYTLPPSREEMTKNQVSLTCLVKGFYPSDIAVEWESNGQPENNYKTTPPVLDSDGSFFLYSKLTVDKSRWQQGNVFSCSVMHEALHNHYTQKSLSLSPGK
light: DIQMTQSPSSLSVSVGDRVTITCQASQGTPINLHWFQQKPGKAPKLLISGASNLESGVPSRFSGSGSGTEFTFTISSLQPEDAATYYCLQFTYIPWTFGQGTKLEIKRTVAAPSVFIFPPSDEQLKSGTASVVCLLNNFYPREAKVQWKVDNALQSGNSQESVTEQDSKDSTYSLSSTLTLSKADYEKHKVYACEVTHQGLSSPVTKSFNRGEC
B22: anti-CD200R antibody clone 2.2.7 (mIgG1k isotype) (antibody, V domains shown)
VH: QVQLKESGPGLVAPSQSLSITCTVSGFSLTSYGVHWVRQLPGKGLEWLGVIWAGGGTNYNSALMSRLSISKDNSKSQVFLKMNRLQTDDTAIYYCAREGLPRAMDYWGQGTSVTVSS
VL: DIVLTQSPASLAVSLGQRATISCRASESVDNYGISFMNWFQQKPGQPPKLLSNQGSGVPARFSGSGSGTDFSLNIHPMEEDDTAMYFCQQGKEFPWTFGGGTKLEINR
notes: Murine hybridoma antibody, IgG1 kappa
B23: anti-CD200R antibody clone 26.1.2 (mIgG1k isotype) (antibody, V domains shown)
VH: EVQLQQSGPELVKPGASVKMSCKASGYTFTSYVMHWVKQKPGQGLEWIGYIHPYNDDIKHNEKFKDKATLTSAKSSSTVYMELSSLTSEDSAVYYCAREEYYGSRFAYWGQGTLVTVSA
VL: DIVLTQSPASLAVSLGQRATISCRASKSVRTSGYSYLHWYQQKPGQPPKLLIYLASNLESGVPARFSGSGSGTDFTLNIHPVEEEDAATYYCQYSGELPFTFGGGTKLEIKR
notes: as for B22

biological target: T1, monomeric soluble human CD200R …; assay: BLI (Octet), antibody on anti-human Fc probes, monomeric CD200R in solution, 25 C, 1:1 global fit
Method: Humanised variant antibodies combining the different heavy and light variable domains described in Example 6 were produced by transient transfection of HEK293 cells. All antibodies were expressed on a human IgGI isotype with a P238D Fc mutation. The unpurified supernatants were analysed by Protein A-HPLC to determine the antibody concentrations, as a measure of expression yield. […] Binding affinity of humanized variants to human CD200R was assessed by bio-layer interferometry on an Octet R4 instrument. Each antibody was captured directly onto anti-human Fc capture probes (Sartorius 18-5060) for 60 sec followed by baseline setting in assay buffer (DPBS, 0.01% Polysorbate-20). Association of monomeric CD200R protein to immobilised antibodies was measured in 4 different protein concentrations (300, 100, 30 and 10 nM in assay buffer) at 25° C., with an association time of 120s and dissociation of 120s in assay buffer only. A reference probe with no antibody immobilised was used for background subtraction. Kinetic rate constants and binding KDs were calculated using Octet Analysis Studio 12 software. Global curve fitting based on all 4 concentrations using a 1:1 model was performed, from which kon and koff were obtained to calculate KD using the relationship KD=koff/kon.

Point of comparison: B18, Kd 34.4 pM. Against it:
- B1 — 63-fold higher, 2160 pM
- B2 — 11-fold lower, 3.18 pM
- B3 — 8.9-fold lower, 3.88 pM
- B4 — 8.3-fold lower, 4.14 pM
- B5 — 11-fold lower, 3.06 pM
- B6 — 11-fold lower, 3.07 pM
- B7 — 5.3-fold higher, 183 pM
- B8 — 14-fold lower, 2.45 pM
- B9 — 6.9-fold lower, 5 pM
- B10 — 12-fold lower, 2.9 pM
- B11 — 13-fold lower, 2.74 pM
- B12 — 8.1-fold lower, 4.23 pM
- B13 — 8.7-fold lower, 3.96 pM
- B14 — 33-fold lower, 1.03 pM
- B15 — 9-fold lower, 3.84 pM
- B16 — 12-fold lower, 2.94 pM
- B17 — 9.5-fold lower, 3.63 pM
- B19 — 7.8-fold lower, 4.43 pM
- B20 — 11-fold lower, 3.18 pM

biological target: T2, extracellular domain of cyno CD200R …; assay: SPR (Biacore), antibody captured by anti-human Fc, CD200R extracellular domain injected, single cycle kinetics, 25 C
Method: This example investigates in vitro CD200R binding of anti-CD200R antibodies by surface plasmon resonance. Surface plasmon resonance binding experiments with purified anti-CD200R antibody (expressed on a hIgG1 isotype with a P238D Fc mutation) were performed using the Biacore T200 and 8K+instruments. Anti-human Fc antibody (Life Technologies H10500) was amine-coupled to a C1 sensor chip using standard amine-coupling chemistry. Residual activated carboxyls were blocked with ethanolamine. Antibodies with a human Fc were then captured on these surfaces.
To assess the binding of hu2131_v20_D56S antibody and variants (antibody hu213l_Q1E and antibody hu2131_Q1E_M99G) to the extracellular domains of human CD200R (Met29-Leu243) and cyno CD200R (SinoBiological 11232-C08H, Metl-Leu267), 10-30 RUs of antibody were captured. CD200R proteins were diluted into running buffer (10 mM HEPES, 150 mM NaCl, 3 mM EDTA, 0.01% Polysorbate 20, pH 7.4 with 0.1 mg/mL BSA) (full-length antibody sequences are disclosed in Table 10). Five three-fold serial dilutions were performed for each CD200R, with highest concentration being 100 nM. Samples were injected using a single cycle kinetics scheme (Karlsson Anal Biochem et al 2006). Data were analyzed using Biacore Insight Evaluation Software and fit to a simple kinetic model, from which kon and koff were obtained to calculate KD using the relationship KD=koff/kon. Experiments were run at 25° C.

In the case of B21, the Kd is reported as ≤ 39.2 pM.

With B21 the koff was ≤ 1e-05 s⁻¹.

B21 was tested, and the kon was 255000 M⁻¹ s⁻¹.

biological target: T1, monomeric soluble human CD200R …; assay: SPR, captured antibody, soluble monomeric receptor injected, single cycle kinetics, 37 C
Method: (§1) The binding affinity and kinetics of the CD200R antibodies of the present disclosure to human or cynomolgus CD200R were determined by surface plasmon resonance (SPR) using the Biacore T200 (GE Healthcare). Mouse antibody capture kit (GE Healthcare) was used to coat a Series S CM5 Sensor Chip (GE Healthcare) with polyclonal anti-mouse IgG.
(§2) Anti-CD200R antibody was captured onto the biosensor surface and a negative control antibody (clone Mopc21; Biolegend) captured in the reference channel. Various concentrations of monomeric soluble human CD200R extracellular domain, soluble cynomolgus macaque CD200R1 extracellular domain or soluble cynomolgus macaque CD200RLa (a highly homologous activating receptor) were injected over the immobilized antibodies in the buffer 10 mM Hepes, 150 mM NaCl, 0.005% v/v Surfactant P20, pH 7.4 (HBS-P) at 37° C., in a single cycle kinetics analysis. Association and dissociation rates were fitted using BiaEvaluation Software (GE Healthcare) after reference and blank subtractions, and dissociation constants were calculated (Table 2).

Point of comparison: B22, Kd 27600 pM. Against it:
- B23 — 39-fold lower, 700 pM

biological target: T3, soluble cynomolgus macaque CD200R1 …; assay: as above
Method: as §1, §2

Point of comparison: B23, Kd 60000 pM. Against it:
- B22 — 2.6-fold higher, 159000 pM
